This note sets out measurements from article PMC3581401 (The Journal of Biological Chemistry, 2013).

In data set [1] the target is ICAM-1 domains 1 to 5 fused to human IgG1 Fc (human) (UniProt P05362). In words: SPR. (In general: In SPR one partner is held on a chip, and binding of the other changes the refractive index at the surface.)
For data set [2], the target named is ICAM-1 domains 1 to 5, Fc tag removed (human) (UniProt P05362). In words: AUC.
The target of data set [3] is T1, ICAM-1 domains 1 to 5 fused to human IgG1 Fc (human, UniProt P05362 28-485). In words: SPR.
T1 sequence (P05362 28-485): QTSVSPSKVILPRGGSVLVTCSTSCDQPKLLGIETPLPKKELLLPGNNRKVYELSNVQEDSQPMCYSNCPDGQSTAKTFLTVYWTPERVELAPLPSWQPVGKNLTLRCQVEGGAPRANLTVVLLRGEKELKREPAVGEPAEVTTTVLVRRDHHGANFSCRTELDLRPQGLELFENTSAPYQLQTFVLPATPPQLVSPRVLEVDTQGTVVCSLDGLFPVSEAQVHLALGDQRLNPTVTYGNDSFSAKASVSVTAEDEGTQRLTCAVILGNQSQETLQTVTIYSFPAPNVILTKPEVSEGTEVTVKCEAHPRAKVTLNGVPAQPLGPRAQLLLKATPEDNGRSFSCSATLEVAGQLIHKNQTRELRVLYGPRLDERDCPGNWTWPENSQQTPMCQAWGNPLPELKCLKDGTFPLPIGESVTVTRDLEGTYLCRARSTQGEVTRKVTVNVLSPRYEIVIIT
Data set [4] deals with ICAM-1 domains 1 to 5, Fc tag removed (human, UniProt P05362 28-485). As to the kind of experiment: AUC.
Sequence of ICAM-1 domains 1 to 5, Fc tag removed (P05362 28-485): as above
Data set [5] deals with the molecule itself. As to the kind of experiment: AUC.
The target of data set [6] is T1, ICAM-1 domains 1 to 5 fused to human …. In words: SPR. This is another data set of the same source.
The target is the same in data set [7]. As to the kind of experiment: SPR. This is another data set of the same source.
Data set [8] concerns the target ICAM-1 domains 1 and 2 (human, UniProt P05362 28-212). In words: SAXS.

Where two headings read alike, the source gives them in different places.

Sequence of ICAM-1 domains 1 to 5 fused to human IgG1 Fc (human) (P05362 28-485): as above
Sequence of ICAM-1 domains 1 to 5, Fc tag removed (human) (P05362 28-485): as above
Sequence of ICAM-1 domains 1 and 2 (P05362 28-212): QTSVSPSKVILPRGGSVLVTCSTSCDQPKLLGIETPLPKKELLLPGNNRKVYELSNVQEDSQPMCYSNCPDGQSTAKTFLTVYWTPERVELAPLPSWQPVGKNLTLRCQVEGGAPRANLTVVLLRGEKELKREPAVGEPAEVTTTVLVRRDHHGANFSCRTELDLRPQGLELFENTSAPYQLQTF

A word on the stoichiometry N: it is a count of units in the complex or per binding partner. Take “IT4VAR13 ectodomain (PfEMP1 from the var13 gene of the P. falciparum IT4 isolate), A3R6S0 1-2691”: the stoichiometry N in data set [1] and in data set [2] was 1 each time.
One may read the Kd as the concentration at which binding is half-saturated. One may read the koff as a measure of how fast the partners let go of each other. The low end stands for a long-lived complex, the high end for a short-lived complex. The kon is the second-order rate constant of association. High values mean fast association, low ones slow association. Consider “IT4VAR16 DBLβ domain (domain or fragment)”, for which, in data set [1], the Kd is 51.1 nM, the koff was found to be 0.00208 s⁻¹ and the kon is 41000 M⁻¹ s⁻¹.
In the case of “IT4VAR27 DBLβ domain (domain or fragment)”, in data set [1], the Kd came to 6.5 nM, the koff stood at 0.00842 s⁻¹ and the kon came to 130000 M⁻¹ s⁻¹.
In the case of “IT4VAR31 DBLβ domain (domain or fragment)”, in data set [1], the Kd is 144 nM and the koff worked out at 0.00145 s⁻¹.
Turning to “IT4VAR41 DBLβ domain (domain or fragment)”, in data set [1], the koff stood at 0.00831 s⁻¹ and the stoichiometry N was determined as 1.09.

B1: IT4VAR13 DBLβ domain (domain or fragment, Plasmodium falciparum (IT4 isolate), UniProt A3R6S0 811-1201, looked up)
chain: ACTGKDGNNERFKIGTEWKIGEKVETTDTDAYIPPRRQHMCTSNLENLNVSWVTEDGKAIHSLLGDVQLAAKMDADEIIKRYKKHNTLTDPIQQKDQESICRAVRYSFADLGDIIRGRDLWEHGDQTKLQGHLQIIFGKIKEEIKKKHPGINGNDKYKGDEKNNPPYKQLREDWWEANRHQVWRAMQCELKNLKKSNGDCHYNSRGTPLDDYIPQRLRWMVEWAEWFCKMQSQEYDKLMKQCSQCMSKGGDCRKGDVNCTSCEQACEEYKKKIKKWEKQWNKIKDKYEELYLQAKIAFAGTSFGGGDRDYQQMVHFFKELQKVTGDTTLGDTTSPYSTAAGYIHQEGHVDECTEQTQFCKNRNGNTASGKEDDNYTFKDPPPKYANACKCD
For the molecule B1, the figures for the kon in data set [3] and in data set [6] were 35000 M⁻¹ s⁻¹ and 350000 M⁻¹ s⁻¹, respectively. In addition, the “stoichiometry N” value in data set [3] is 1.16; in data set [4], 1; in data set [5], 2; in data set [8], 1. The Kd was found to be 2.6 nM in data set [6] and 2.8 nM in data set [7]. The molecule also displayed a koff in data set [6] of 0.0009 s⁻¹.
